Measured values taken from IntAct's records for PubMed 15522217.

B1: Crk-like protein (Homo sapiens), P46109 (parent)
chain: MSSARFDSSDRSAWYMGPVSRQEAQTRLQGQRHGMFLVRDSSTCPGDYVLSVSENSRVSHYIINSLPNRRFKIGDQEFDHLPALLEFYKIHYLDTTTLIEPAPRYPSPPMGSVSAPNLPTAEDNLEYVRTLYDFPGNDAEDLPFKKGEILVIIEKPEEQWWSARNKDGRVGMIPVPYVEKLVRSSPHGKHGNRNSNSYGIPEPAHAYAQPQTTTPLPAVSGSPGAAITPLPSTQNGPVFAKAIQKRVPCAYDKTALALEVGDIVKVTRMNINGQWEGEVNGRKGLFPFTHVKIFDPQNPDENE

Variants of: B1
Conditions: with insr_human INSR

**Q.** How did the “effect of a mutation on the interaction” value turn out when H33R;S53P;K72R was run?
**A.** decreasing interaction

Variants of: B1
Conditions: with insr_human INSR
Remark: another data set of the same source

**Q.** With H33R;S53P;K72R as the variant, how does the “effect of a mutation on the interaction” value read?
**A.** decreasing interaction
